{
  "source": "patent US20140087401",
  "tested_on": "purified spectrin",
  "data": [
    {"substance": "calpain (added in the in-tube reaction)", "values": [
      {"measurement": "spectrin cleavage, gel stained with Coomassie's blue", "value": "Purified spectrins undergo calpain-mediated dynamic cleavage in a test tube due to ambient PAV impact"}
    ]}
  ]
}
